Laboratory results reported in publication PMC8401665.

Legend:
[1] = biological target: GluK2-ATD (Cys-light homomeric GluK2 receptor with a cysteine at site 266) (Rattus norvegicus) (UniProt P42260)
[2] = biological target: GluK2-ABD (Cys-light homomeric GluK2 receptor with a cysteine at site 479) (Rattus norvegicus) (UniProt P42260)

smFRET efficiency across the dimer-dimer interface at the ATD (site 266) with 40 uM Con-A and 1 mM glutamate; primary population, against 0.83 reported earlier without Con-A (FRET efficiency) [1]: 0.95 | smFRET efficiency between subunits at the ABD dimer interface (site 479) with 40 uM Con-A and 1 mM glutamate, Na+; major peak, shift of the population to higher FRET states against no Con-A (FRET efficiency) [2]: 0.94
Substance: Concanavalin A (natural protein)
